Measurements from patent US20190161551A1 (Regeneron, published 2019).
Values belong to the binder of their own block, whether it stands above or below them.

Columns and labels:
mouse TrkB.hFc [1] = molecular target: T1, mouse TrkB.hFc (mouse); assay: blocking ELISA, mouse TrkB.hFc pre-mixed with mAb, plate-coated BDNF
T1 construct: also called mTrkB.hFc; mTrkB-hFc
Method: (§1) Experiments were carried out using the following procedure. Human BDNF was coated at a concentration of 0.5 μg/mL (for blocking mouse TrkB.hFc interaction) or 0.3 μg/mL (for blocking rat TrkB.mmh interaction) in PBS on 96-well microtiter plate and incubated overnight at 4° C. […] In a 96-well dilution plate, 850 pM mouse TrkB.hFc or rat TrkB.mmh was mixed with the three-fold serially diluted anti-mouse TrkB antibodies and control antibody. The final antibody concentrations ranged from 1.69 pM to 100 nM. The protein-antibody mix was incubated at room temperature (RT) for 1 hour. The pre-bound mix was then transferred in duplicates to microtiter plates coated with BDNF. A control containing assay buffer alone was included to calculate the baseline of the assay. The ELISA plates were incubated at RT for 1 hour and then washed with plate washing solution. Plate-bound mouse TrkB.hFc was detected with HRP-conjugated goat anti-human Fcγ fragment specific antibody (Jackson Immunoresearch) and rat TrkB.mmh was detected with HRP-conjugated anti-histidine antibody (Qiagen). The plates were incubated with detection antibody for 1 hour at RT and then washed with plate washing solution. The assay plates were developed with TMB colorimetric substrates according to the manufacturer's recommended procedure.
(§2) The absorbance at 450 nm for each well was recorded and plotted as a function of the concentration of antibody. Data was analyzed in GraphPad Prism software using a four-parameter logistic equation over an 11-point dose response curve and IC₅₀ values were calculated. […] Percent blockade at maximum concentration of the antibody tested was calculated as an indicator of the ability of the antibodies to block the binding of TrkB to BDNF on the plate relative to the baseline of the assay. Binding signal of 850 pM mouse or rat TrkB in absence of the antibody was defined as 100% binding or 0% blocking. The baseline signal of assay buffer alone was defined as 0% binding or 100% blocking.

mouse TrkB.hFc [2] = molecular target: T1, mouse TrkB.hFc; assay: BLI Octet, captured mTrkB.hFc saturated with BDNF, 300 nM mAb
Method: (§3) Blocking of anti-human TrkB or anti-mouse TrkB antibodies from binding to TrkB by BDNF or NT-4 was evaluated using a real-time bio-layer interferometry (BLI) based Octet HTX instrument. The entire study was performed in 10 mM HEPES pH 7.4, 300 mM NaCl, 3 mM EDTA, 1 mg/mL BSA, 0.02% NaN3 and 0.05% v/v Surfactant Tween-20 (HBS-EBT running buffer) at 25° C. All the samples were dispensed in a 384 tilted well plate and the plate was placed on the orbital shaker with the shake speed of 1000 rpm. hTrkB.mFc was captured on anti-mFc (AMC) Octet sensors while hTrkB.hFc or mTrkB.hFc were captured on anti-hFc (AHC) Octet sensors by dipping in wells containing 10 μg/mL of TrkB reagents for 2 minutes. hTrkB.mFc or hTrkB.hFc captured Octet biosensors were saturated by dipping in wells containing 20 nM of BDNF, hNT-4, or mNT-4 for 2 minutes followed by dipping Octet biosensors in wells containing 300 nM of different TrkB mAbs for 4 minutes. Binding of TrkB mAbs to the complex of TrkB and BDNF, hNT-4, or mNT-4 was determined using Scrubber 2.0c analysis software.

mouse TrkB.hFc [3] = molecular target: T1, mouse TrkB.hFc; assay: BLI Octet, captured mTrkB.hFc saturated with mNT-4, 300 nM mAb
Method: as §3

[4] = molecular target: human TrkB expressed on HEK293/SRE-Luc/hTrkB cells (human, UniProt Q16620 32-822); assay: cell-based or functional assay
[5] = molecular target: T2, rat TrkB extracellular domain expressed with a C-terminal myc-myc-hexahistidine tag (rat, UniProt Q63604 32-429); assay: blocking ELISA, rat TrkB.mmh pre-mixed with mAb, plate-coated BDNF
T2 construct: also called rTrkB.mmH; rTRKB.mmH
Method: as §1, §2

mouse TrkB.hFc [6] = molecular target: T1, mouse TrkB.hFc; assay: BLI Octet, captured mTrkB.hFc, 300 nM mAb (BDNF run)
Method: Blocking of BDNF or NT-4 from binding to TrkB by anti-human TrkB or anti-mouse TrkB antibodies was evaluated using a real-time bio-layer interferometry (BLI) based Octet HTX instrument. The entire study was performed in 10 mM HEPES pH 7.4, 300 mM NaCl, 3 mM EDTA, 1 mg/mL BSA, 0.02% NaN3 and 0.05% v/v Surfactant Tween-20 (HBS-EBT running buffer) at 25° C. All the samples were dispensed in a 384 tilted well plate and the plate was placed on the orbital shaker with the shake speed of 1000 rpm. hTrkB.mFc was captured on anti-mFc (AMC) Octet sensors while hTrkB.hFc or mTrkB.hFc were captured on anti-hFc (AHC) Octet sensors by dipping in wells containing 10 μg/mL of TrkB reagents for 2 minutes. hTrkB.mFc or hTrkB.hFc captured Octet biosensors were saturated by dipping in wells containing 300 nM of different TrkB mAbs for 4 minutes followed by dipping Octet biosensors in wells containing 20 nM of BDNF, hNT-4, or mNT-4 for 2 minutes. Binding of BDNF, hNT-4, or mNT-4 to the complex of TrkB and different TrkB mAbs was determined using Scrubber 2.0c analysis software.

[7] = molecular target: T3, human TrkB extracellular domain expressed with a C-terminal mouse IgG2a Fc tag (human); assay: BLI Octet, captured hTrkB.mFc, 300 nM mAb (hNT-4 run)
T3 construct: also called hTrkB-mFc; hTrkB.mFc
Method: as §3

[8] = molecular target: T3, human TrkB extracellular domain …; assay: BLI Octet, captured hTrkB.mFc, 300 nM mAb, no ligand
Method: as §3

[9] = molecular target: T3, human TrkB extracellular domain …; assay: BLI Octet, captured hTrkB.mFc saturated with hNT-4, 300 nM mAb
Method: as §3

[10] = molecular target: T3, human TrkB extracellular domain …; assay: BLI Octet, captured hTrkB.mFc saturated with BDNF, 300 nM mAb
Method: as §3

[11] = molecular target: T3, human TrkB extracellular domain …; assay: BLI Octet, captured hTrkB.mFc, 300 nM mAb (BDNF run)
Method: as §3

T3 sequence (chain, as listed by the source limits assumed): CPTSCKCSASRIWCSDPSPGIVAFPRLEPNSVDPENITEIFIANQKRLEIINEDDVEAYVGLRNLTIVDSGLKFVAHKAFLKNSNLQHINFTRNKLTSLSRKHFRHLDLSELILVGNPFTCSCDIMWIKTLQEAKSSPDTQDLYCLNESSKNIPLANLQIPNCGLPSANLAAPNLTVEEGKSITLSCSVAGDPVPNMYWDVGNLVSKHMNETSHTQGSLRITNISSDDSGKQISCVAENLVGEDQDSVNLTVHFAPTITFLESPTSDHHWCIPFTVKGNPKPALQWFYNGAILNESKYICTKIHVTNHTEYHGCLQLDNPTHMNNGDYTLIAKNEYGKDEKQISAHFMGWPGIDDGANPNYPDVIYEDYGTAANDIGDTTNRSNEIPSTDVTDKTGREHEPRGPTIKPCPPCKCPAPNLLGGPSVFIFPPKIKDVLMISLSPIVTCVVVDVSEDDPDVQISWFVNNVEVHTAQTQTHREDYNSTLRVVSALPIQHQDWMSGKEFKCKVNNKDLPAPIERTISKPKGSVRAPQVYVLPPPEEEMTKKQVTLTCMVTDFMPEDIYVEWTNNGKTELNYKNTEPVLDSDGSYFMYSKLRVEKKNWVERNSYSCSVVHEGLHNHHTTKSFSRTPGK
Sequence of human TrkB expressed on HEK293/SRE-Luc/hTrkB cells (Q16620 32-822): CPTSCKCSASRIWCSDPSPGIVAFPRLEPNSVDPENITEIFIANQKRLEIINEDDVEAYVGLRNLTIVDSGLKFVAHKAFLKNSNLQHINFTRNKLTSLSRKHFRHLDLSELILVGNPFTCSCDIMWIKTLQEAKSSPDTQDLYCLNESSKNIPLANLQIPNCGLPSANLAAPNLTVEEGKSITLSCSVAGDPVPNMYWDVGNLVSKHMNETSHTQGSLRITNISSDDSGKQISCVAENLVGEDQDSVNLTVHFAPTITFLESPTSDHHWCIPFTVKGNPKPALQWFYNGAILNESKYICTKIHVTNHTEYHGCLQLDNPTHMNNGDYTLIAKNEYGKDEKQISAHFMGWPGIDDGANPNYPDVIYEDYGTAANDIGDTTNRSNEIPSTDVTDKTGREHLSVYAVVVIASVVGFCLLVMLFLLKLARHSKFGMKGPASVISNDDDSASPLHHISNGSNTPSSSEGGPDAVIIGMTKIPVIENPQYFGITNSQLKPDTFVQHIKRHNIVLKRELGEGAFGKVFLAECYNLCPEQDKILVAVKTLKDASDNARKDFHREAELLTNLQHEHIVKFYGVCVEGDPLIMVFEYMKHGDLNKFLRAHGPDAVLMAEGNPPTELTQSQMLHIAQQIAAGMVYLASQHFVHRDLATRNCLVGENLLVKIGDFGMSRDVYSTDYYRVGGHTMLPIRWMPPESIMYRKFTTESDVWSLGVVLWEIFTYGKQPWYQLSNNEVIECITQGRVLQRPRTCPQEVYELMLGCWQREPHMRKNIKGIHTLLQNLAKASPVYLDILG
T1 sequence (chain, as listed by the source limits assumed): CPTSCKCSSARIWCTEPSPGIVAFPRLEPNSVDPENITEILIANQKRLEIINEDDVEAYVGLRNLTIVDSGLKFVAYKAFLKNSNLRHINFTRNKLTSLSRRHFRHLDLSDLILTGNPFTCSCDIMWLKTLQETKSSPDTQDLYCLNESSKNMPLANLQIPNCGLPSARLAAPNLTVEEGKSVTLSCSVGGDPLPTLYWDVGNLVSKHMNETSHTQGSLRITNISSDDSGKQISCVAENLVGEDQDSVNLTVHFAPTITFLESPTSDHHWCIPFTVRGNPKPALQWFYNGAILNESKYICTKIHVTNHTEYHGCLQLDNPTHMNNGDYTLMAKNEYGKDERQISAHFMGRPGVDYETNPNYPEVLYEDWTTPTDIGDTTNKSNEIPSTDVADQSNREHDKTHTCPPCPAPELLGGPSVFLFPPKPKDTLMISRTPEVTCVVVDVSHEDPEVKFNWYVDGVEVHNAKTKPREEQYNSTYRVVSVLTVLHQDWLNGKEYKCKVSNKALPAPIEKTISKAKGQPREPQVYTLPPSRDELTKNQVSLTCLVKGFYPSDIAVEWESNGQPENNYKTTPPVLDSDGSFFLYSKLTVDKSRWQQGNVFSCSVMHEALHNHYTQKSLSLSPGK
T2 sequence (Q63604 other isoform, or with tags, fused parts or gaps): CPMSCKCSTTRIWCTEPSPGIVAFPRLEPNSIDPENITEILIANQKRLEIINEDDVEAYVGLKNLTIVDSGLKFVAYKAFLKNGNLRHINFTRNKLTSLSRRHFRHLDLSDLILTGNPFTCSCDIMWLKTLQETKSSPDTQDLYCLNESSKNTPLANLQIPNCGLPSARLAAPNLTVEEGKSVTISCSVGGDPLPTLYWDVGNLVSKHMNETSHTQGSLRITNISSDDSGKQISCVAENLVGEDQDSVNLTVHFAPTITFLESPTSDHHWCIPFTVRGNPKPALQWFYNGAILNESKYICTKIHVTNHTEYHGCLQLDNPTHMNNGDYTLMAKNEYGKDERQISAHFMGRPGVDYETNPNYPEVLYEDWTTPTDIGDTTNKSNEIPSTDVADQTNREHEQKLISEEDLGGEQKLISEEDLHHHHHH

% Blockade with 100 nM antibody (mouse TrkB.hFc [1]): 91.5%
IC50 (mouse TrkB.hFc [1]): 180 pM
antibody Binding (nm) (mouse TrkB.hFc [2]): 0.06 nm
antibody Binding (nm) (mouse TrkB.hFc [3]): 0.11 nm
Activation (%), SRE-luciferase, 100 pM BDNF [4]: 79%
Activation (%), SRE-luciferase, No BDNF [4]: 80%
EC50 (M), SRE-luciferase, 100 pM BDNF [4]: 1.1e-10 M
EC50 (M), SRE-luciferase, No BDNF [4]: 5.7e-11 M
% Blockade with 100 nM antibody [5]: 83.3%
IC50 [5]: 1420 pM
mAb Binding (nm) (mouse TrkB.hFc [6]): 0.42 nm
B1: H1M8037C (antibody, mouse IgG1, kappa, V domains shown)
VH: QVQLVQSGAEVKKPGASVKVSCKASGYTFTNYDIIWVRQAPGQGLEWMGYINPYNDGTKYNEKFKGRVTMTRDTSTSTVYMELSSLRSEDTAVYYCARLLKYRRFRYYAIDYWGQGTTVTVSS
VL: DIQMTQSPSSLSASVGDRVTITCRTSENVYSNLAWYQQKPGKAPKLLIYAASNLQSGVPSRFSGSGSGTDYTFTISSLQPEDIATYYCQHFWGSPFTFGQGTKLEIKR
notes: captured by anti-mFc in SPR; also called Comparator; comparator anti-TrkB monoclonal antibody

mAb Binding (nm) [7]: 0.18 nm
antibody Binding (nm) [8]: 0.18 nm
antibody Binding (nm) [9]: 0.2 nm
antibody Binding (nm) [10]: 0.2 nm
mAb Binding (nm) [11]: 0.18 nm
B2: H4H9780P (antibody, human IgG4 S228P, kappa, V domains shown)
VH: QVQLVESGGGVVQPGRSLRLSCAASGFSFSSFGMHWVRQAPGKGLEWVSVISYDGINTYYTDSVKGRFTISRDNSKNTLYLQMNGLRAEDTALYYCVQGSIGTVFEYWGQGTLVTVSS
VL: DIQMTQSPSSLSASVGDRVTITCRASQGISNYLAWYQQKPGKVPKLLIYAASTLQSGVPSRFGGSGSGTDFTLTISSLQPEDVATYYCQKYTSAPFTFGPGTKVDIKR
notes: Fully human anti-human TrkB agonist antibody, human IgG4 Fc; also called H4H9780P-L1

mAb Binding (nm) [7]: 0.18 nm
antibody Binding (nm) [8]: 0.19 nm
antibody Binding (nm) [9]: 0.24 nm
antibody Binding (nm) [10]: 0.26 nm
mAb Binding (nm) [11]: 0.19 nm
B3: H4H9816P2 (antibody, human IgG4 S228P, kappa, V domains shown)
VH: EVQLVESGGGLVQPGGSLTLSCAASGFNFRDYEMIWVRQTPGKGLEWISYISNSGYTIYYADSVKGRFTISRDNARNSIYLQVNSLRAEDTAVYYCSRRTTMIRGIRAYYYYGLDVWGQGTTVTVSS
VL: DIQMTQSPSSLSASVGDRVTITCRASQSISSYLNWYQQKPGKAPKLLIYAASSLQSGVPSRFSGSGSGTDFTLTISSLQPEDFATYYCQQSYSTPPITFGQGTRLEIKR
notes: Fully human anti-human TrkB agonist antibody, human IgG4 Fc; also called H4H9816P-L1

mAb Binding (nm) [7]: 0.18 nm
antibody Binding (nm) [8]: 0.18 nm
antibody Binding (nm) [9]: 0.23 nm
antibody Binding (nm) [10]: 0.22 nm
mAb Binding (nm) [11]: 0.18 nm
B4: H4H9814P (antibody, human IgG4 S228P, kappa, V domains shown)
VH: EVQLVESGGGLVQPGGSLKLSCTASGFTFSGSVIHWVRQASGKGLEWIGRIRNKANSYATAYGASVTGRFTISRDDSKNTAYLQMNSLKTEDTAVYYCTFPGVVGRGGFDYWGQGTLVTVSS
VL: DIVMTQSPDSLAVSLGEGATINCMSSQSVLFSSNNKNYLAWYQQKPGQPPKLLFYWASTRESGVPDRFGGSGSGTDFSLTINSLQTEDVAVYYCLQYYSIPWTFGQGTKVEIKR
notes: Fully human anti-human TrkB agonist antibody, human IgG4 Fc; also called H4H9814P-L1

% Blockade with 100 nM antibody (mouse TrkB.hFc [1]): 11.6%
antibody Binding (nm) (mouse TrkB.hFc [2]): 0.44 nm
antibody Binding (nm) (mouse TrkB.hFc [3]): 0.43 nm
Activation (%), SRE-luciferase, 100 pM BDNF [4]: 52%
Activation (%), SRE-luciferase, No BDNF [4]: 4%
% Blockade with 100 nM antibody [5]: -38.1%
mAb Binding (nm) (mouse TrkB.hFc [6]): 0.42 nm
B5: M2aM14179N (antibody, mouse IgG2a, kappa, V domains shown)
VH: EVQLQQSGPELVKPGASVKISCKASGYTLTDYYMNWVKQSHGKSLEWIGDINPNNGGTSYNQKFKGKATLTVDKSSSTAYMELRSLTSEDSAVYYCARGAYYSNYFDYWGQGTTLTVSS
VL: DIVMSQSPSSLAVSAGEKVTMSCKSSQSLLNSRTRKNYLAWYQQKPGQSPKLLIYWASTRESGVPDRFTGSGSGTDFTLTISSVQAEDLAVYYCKQSYILFTFGSGTQLEIKR
notes: Anti-mouse TrkB antibody from hybridoma, mouse IgG2a Fc; also called surrogate anti-mouse TrkB antibody

% Blockade with 100 nM antibody (mouse TrkB.hFc [1]): 29.7%
antibody Binding (nm) (mouse TrkB.hFc [2]): 0.38 nm
antibody Binding (nm) (mouse TrkB.hFc [3]): 0.4 nm
Activation (%), SRE-luciferase, 100 pM BDNF [4]: 59%
Activation (%), SRE-luciferase, No BDNF [4]: 2%
% Blockade with 100 nM antibody [5]: 80.7%
IC50 [5]: 3810 pM
mAb Binding (nm) (mouse TrkB.hFc [6]): 0.42 nm
B6: M2aM14173N (antibody, mouse IgG2a, kappa, V domains shown)
VH: NVSLVESGGGSVKPGGSLQLSCAASGFTFSSSAMSWIRQTPEMRLEWVATISDRGSYTYYPDSVEGRFTISRDNAKNILYLQMSHLMSEDTAMYYCARGKGEKAYYTAFFAYWGQGSLVTVSA
VL: DIQMTQSPASLSASVGETVTITCRASENIYSYLAWYQQKPGKSPHLLVHNAETLAEGVPSRFSGSGSGPQFSLKINSLQPGDSGTYYCQHHYSSPWTFGGGTKLEIKR
notes: as for B5
